Tests used:
full length TOP1-His = full length TOP1-His (UniProt Q94AM1); assay: SEC; Superdex 200 gel filtration of cobalt-column purified His-tagged protein, no DTT; apparent MW by interpolation with conalbumin and aldolase; peak areas at A280
[1] = molecular target: T1, TOP2 fused to the N-terminal or the C-terminal half of Renilla luciferase, Q949P2; assay: split reporter (BiFC, NanoBiT); split Renilla luciferase complementation in Arabidopsis protoplasts co-transformed with NLuc and CLuc fusions; luminescence read 12-16 h after transformation; with or without 100 or 200 uM SA (3 h); conditions: remark: other sources report otherwise
T1 chain: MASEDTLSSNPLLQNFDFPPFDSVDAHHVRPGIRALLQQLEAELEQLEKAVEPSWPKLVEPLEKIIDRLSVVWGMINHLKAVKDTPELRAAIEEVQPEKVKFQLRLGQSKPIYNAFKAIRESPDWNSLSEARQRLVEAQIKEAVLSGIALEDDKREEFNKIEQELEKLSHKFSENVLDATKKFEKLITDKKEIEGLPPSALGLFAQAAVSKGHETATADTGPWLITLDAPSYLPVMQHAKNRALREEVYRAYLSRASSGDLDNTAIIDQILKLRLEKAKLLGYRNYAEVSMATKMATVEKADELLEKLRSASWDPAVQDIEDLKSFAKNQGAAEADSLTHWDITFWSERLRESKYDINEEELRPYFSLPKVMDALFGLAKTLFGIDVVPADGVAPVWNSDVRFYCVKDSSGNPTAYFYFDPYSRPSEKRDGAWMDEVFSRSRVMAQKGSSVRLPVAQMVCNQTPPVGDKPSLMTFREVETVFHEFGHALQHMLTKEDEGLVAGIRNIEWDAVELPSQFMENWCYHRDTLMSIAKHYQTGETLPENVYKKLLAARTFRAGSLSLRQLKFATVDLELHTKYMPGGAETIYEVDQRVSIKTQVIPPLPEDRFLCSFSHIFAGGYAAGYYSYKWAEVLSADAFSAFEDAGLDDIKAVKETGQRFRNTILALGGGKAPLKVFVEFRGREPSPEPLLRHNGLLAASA

[2] = molecular target: T2, full length TOP2-His, Q949P2; assay: SEC; Superdex 200 gel filtration of cobalt-column purified His-tagged protein, no DTT; apparent MW by interpolation with conalbumin and aldolase; peak areas at A280; conditions: remark: other sources report otherwise
T2 chain: T1 chain

“full length TOP1-His (from UniProt Q94AM1 83-791) (enzyme)” was tested, and the stoichiometry N (full length TOP1-His) was 2.

B1: TOP2 fused to the N-terminal or the C-terminal half of Renilla luciferase, Q949P2 1-701 (enzyme)
chain: T1 chain
B1 gave a fold luminescence intensity over TOP1-TOP1 or TOP1-TOP2 [1] of 3.4 fold.

B2: full length TOP2-His, Q949P2 1-701 (enzyme)
chain: T1 chain
Molecule B2 has a stoichiometry N [2] of 2.

From publication PMC4434903
